# Data taken from patent US20250296960A1, “PEPTIDE COMPOSITIONS AND METHODS OF USE THEREOF” (priority 2022, published 2025).
# Numbered stars: 1 amine (or outer) side, 2 acyl side, 3 side chain; on linkers, the order of the positions; unused ones are H or OH. Square brackets hold non-standard residues; d marks the D form. Side chains are listed from the residue outwards. Ends that are not written are not given here. * marks the point of attachment. C18 = C18 fatty acid (C16-C22 fatty acids conjugated via γGlu/8-amino-3,6-dioxaoctanoic acid spacers); Biotin = O=C1N[C@H]2[C@H](CS[C@H]2CCCCC(=O)*)N1; γGlu = O=C(O)[C@H](CCC(=O)[*:2])N[*:1]; biotin‑maleimide = B1-MAL; AEEA = NCCOCCOCC(=O)O; Aib = CC(C)(N)C(=O)O; MAL = maleimide
# Target: T1, human GLP-1 receptor (GLP-1R), expressed on CHO-K1 cells (human, UniProt P43220 24-463)
# Test: cell-based or functional assay
row,Binder,"EC50 (nM), cAMP assay"
1,"H[Aib]QGTFTSDYSKYLDYMMARDFVQWLIEGGPSSGAPPPSC([MAL-AEEA-AEEA-γGlu-C18])-NH2 [Peptide No. 5A (peptide 5, A type: lipid at Cys40)]",0.0967 nM

# Target: T2, human glucose-dependent insulinotropic polypeptide receptor (GIPR), expressed on CHO-K1 cells (human, UniProt P48546 22-466)
# T2 sequence (looked up): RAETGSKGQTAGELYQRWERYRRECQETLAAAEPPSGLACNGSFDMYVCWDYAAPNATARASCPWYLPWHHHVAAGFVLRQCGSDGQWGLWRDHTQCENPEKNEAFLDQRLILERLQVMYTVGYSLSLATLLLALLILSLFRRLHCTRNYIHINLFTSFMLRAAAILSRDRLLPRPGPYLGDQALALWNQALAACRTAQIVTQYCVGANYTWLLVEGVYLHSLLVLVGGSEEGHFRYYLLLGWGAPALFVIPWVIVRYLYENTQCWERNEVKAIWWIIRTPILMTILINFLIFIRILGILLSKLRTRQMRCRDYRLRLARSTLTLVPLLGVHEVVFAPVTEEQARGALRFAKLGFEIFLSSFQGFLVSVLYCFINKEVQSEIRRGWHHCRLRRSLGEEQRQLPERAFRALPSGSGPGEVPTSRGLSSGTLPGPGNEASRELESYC
# Test: cell-based or functional assay
row,Binder,"EC50 (nM), cAMP assay"
1,"H[Aib]QGTFTSDYSKYLDYMMARDFVQWLIEGGPSSGAPPPSC([MAL-AEEA-AEEA-γGlu-C18])-NH2 [Peptide No. 5A (peptide 5, A type: lipid at Cys40)]",157 nM

# Target: T3, human glucagon receptor (GCGR), expressed on CHO-K1 cells (human, UniProt P47871 26-477)
# T3 sequence (P47871 26-477): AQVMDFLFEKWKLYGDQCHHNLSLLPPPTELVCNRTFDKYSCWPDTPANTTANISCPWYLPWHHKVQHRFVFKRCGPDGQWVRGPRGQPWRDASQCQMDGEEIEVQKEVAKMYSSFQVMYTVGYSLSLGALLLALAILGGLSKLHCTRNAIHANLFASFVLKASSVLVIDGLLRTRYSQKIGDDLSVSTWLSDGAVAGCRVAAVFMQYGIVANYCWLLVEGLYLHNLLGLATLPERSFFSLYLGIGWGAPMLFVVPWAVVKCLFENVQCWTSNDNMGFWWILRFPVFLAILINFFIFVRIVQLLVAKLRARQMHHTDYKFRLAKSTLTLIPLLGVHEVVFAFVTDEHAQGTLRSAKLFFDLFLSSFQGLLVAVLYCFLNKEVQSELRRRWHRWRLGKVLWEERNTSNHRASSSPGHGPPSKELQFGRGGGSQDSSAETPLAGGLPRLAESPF
# Test: cell-based or functional assay
row,Binder,"EC50 (nM), cAMP assay"
1,"H[Aib]QGTFTSDYSKYLDYMMARDFVQWLIEGGPSSGAPPPSC([MAL-AEEA-AEEA-γGlu-C18])-NH2 [Peptide No. 5A (peptide 5, A type: lipid at Cys40)]",1.71 nM

# Target: T3, human glucagon receptor (GCGR), …
# Test: cell-based or functional assay
# Remark: another data set of the same source
row,Binder,Percentage change in EC50 relative to GCG at human GCGR (%)
1,"H[Aib]QGTFTSDASKYLDRDWTGDFVQWLIDGGPSSGAPPPSC([MAL-AEEA-AEEA-γGlu-C18])-NH2 [Peptide No. 32A (peptide 32, A type: lipid at Cys40)]",0%
2,"H[Aib]QGTFTSDHSWYLDKWTAHDFVQWLINGGPSSGAPPPSC([MAL-AEEA-AEEA-γGlu-C18])-NH2 [Peptide No. 18A (peptide 18, A type: lipid at Cys40)]",0%
3,"H[Aib]QGTFTSDWSKYLDQQMAQDFVDWLINGGPSSGAPPPSC([MAL-AEEA-AEEA-γGlu-C18])-NH2 [Peptide No. 12A (peptide 12, A type: lipid at Cys40)]",15%

# Target: T1, human GLP-1 receptor (GLP-1R), …
# Test: cell-based or functional assay
# Remark: another data set of the same source
row,Binder,Percentage change in EC50 relative to GLP-1 at human GLP-1R (%)
1,"H[Aib]QGTFTSDASKYLDRDWTGDFVQWLIDGGPSSGAPPPSC([MAL-AEEA-AEEA-γGlu-C18])-NH2 [Peptide No. 32A (peptide 32, A type: lipid at Cys40)]",1%
2,"H[Aib]QGTFTSDHSWYLDKWTAHDFVQWLINGGPSSGAPPPSC([MAL-AEEA-AEEA-γGlu-C18])-NH2 [Peptide No. 18A (peptide 18, A type: lipid at Cys40)]",0%
3,"H[Aib]QGTFTSDWSKYLDQQMAQDFVDWLINGGPSSGAPPPSC([MAL-AEEA-AEEA-γGlu-C18])-NH2 [Peptide No. 12A (peptide 12, A type: lipid at Cys40)]",296%

# Target: T2, human glucose-dependent insulinotropic …
# Test: cell-based or functional assay
# Remark: another data set of the same source
row,Binder,Percentage change in EC50 relative to GIP at human GIPR (%)
1,"H[Aib]QGTFTSDASKYLDRDWTGDFVQWLIDGGPSSGAPPPSC([MAL-AEEA-AEEA-γGlu-C18])-NH2 [Peptide No. 32A (peptide 32, A type: lipid at Cys40)]",0%
2,"H[Aib]QGTFTSDHSWYLDKWTAHDFVQWLINGGPSSGAPPPSC([MAL-AEEA-AEEA-γGlu-C18])-NH2 [Peptide No. 18A (peptide 18, A type: lipid at Cys40)]",0%
3,"H[Aib]QGTFTSDWSKYLDQQMAQDFVDWLINGGPSSGAPPPSC([MAL-AEEA-AEEA-γGlu-C18])-NH2 [Peptide No. 12A (peptide 12, A type: lipid at Cys40)]",8%

# Target: T1, human GLP-1 receptor (GLP-1R), …
# Test: cell-based or functional assay
# Remark: another data set of the same source
row,Binder,"EC50 (nM), cAMP assay"
1,"H[Aib]QGTFTSDYSK([AEEA-AEEA-γGlu-C18])YLDYMMARDFVQWLIEGGPSSGAPPPSC(biotin‑maleimide)-NH2 [Peptide No. 5C (peptide 5, C type: lipid at Lys12 and biotin at Cys40)]",0.0772 nM
2,"H[Aib]QGTFTSDYSK(Biotin)YLDYMMARDFVQWLIEGGPSSGAPPPSC([MAL-AEEA-AEEA-γGlu-C18])-NH2 [Peptide No. 5B (peptide 5, B type: lipid at Cys40 and biotin at Lys12)]",0.18 nM
3,"H[Aib]QGTFTSDYSKYLDYMMARDFVQWLIEGGPSSGAPPPSC([MAL-AEEA-AEEA-γGlu-C18])-NH2 [Peptide No. 5A (peptide 5, A type: lipid at Cys40)]",0.187 nM

# Target: T2, human glucose-dependent insulinotropic …
# Test: cell-based or functional assay
# Remark: another data set of the same source
row,Binder,"EC50 (nM), cAMP assay"
1,"H[Aib]QGTFTSDYSK([AEEA-AEEA-γGlu-C18])YLDYMMARDFVQWLIEGGPSSGAPPPSC(biotin‑maleimide)-NH2 [Peptide No. 5C (peptide 5, C type: lipid at Lys12 and biotin at Cys40)]",24.2 nM
2,"H[Aib]QGTFTSDYSK(Biotin)YLDYMMARDFVQWLIEGGPSSGAPPPSC([MAL-AEEA-AEEA-γGlu-C18])-NH2 [Peptide No. 5B (peptide 5, B type: lipid at Cys40 and biotin at Lys12)]",97.2 nM
3,"H[Aib]QGTFTSDYSKYLDYMMARDFVQWLIEGGPSSGAPPPSC([MAL-AEEA-AEEA-γGlu-C18])-NH2 [Peptide No. 5A (peptide 5, A type: lipid at Cys40)]",140 nM

# Target: T3, human glucagon receptor (GCGR), …
# Test: cell-based or functional assay
# Remark: another data set of the same source
row,Binder,"EC50 (nM), cAMP assay"
1,"H[Aib]QGTFTSDYSK([AEEA-AEEA-γGlu-C18])YLDYMMARDFVQWLIEGGPSSGAPPPSC(biotin‑maleimide)-NH2 [Peptide No. 5C (peptide 5, C type: lipid at Lys12 and biotin at Cys40)]",3.23 nM
2,"H[Aib]QGTFTSDYSK(Biotin)YLDYMMARDFVQWLIEGGPSSGAPPPSC([MAL-AEEA-AEEA-γGlu-C18])-NH2 [Peptide No. 5B (peptide 5, B type: lipid at Cys40 and biotin at Lys12)]",15.1 nM
3,"H[Aib]QGTFTSDYSKYLDYMMARDFVQWLIEGGPSSGAPPPSC([MAL-AEEA-AEEA-γGlu-C18])-NH2 [Peptide No. 5A (peptide 5, A type: lipid at Cys40)]",9.29 nM
